Patent publication US20080113421A1, “Stabilizing proteins against denaturation and inactivation by charged detergents using chemical modifications, including modifications that increase net charge” (President and Fellows of Harvard College, priority 2006, published 2008)

Key:
Assay type in all cases: physicochemical
[1] = Critical micelle concentration by isothermal titration calorimetry; settings: 25 mM Tris-192 mM Gly, pH 8.4 buffer
Procedure: Critical micelle concentration of SDS in Tris-Gly buffer was determined as follows. The critical micelle concentration (CMC) of SDS in 25 mM Tris-192 mM Gly, pH 8.4 buffer was 4.3 mM, as measured by isothermal titration calorimetry. In this example, the kinetics of denaturation and renaturation of proteins in concentrations of SDS below the CMC were studied. The difference in kinetics of denaturation of the two proteins may also occur in concentrations of SDS above the CMC.

[2] = Net charge of protein (capillary electrophoresis, charge ladder)
Procedure: BCA-Ac18 was synthesized by reacting the lysine residues of BCA with acetic anhydride in 100 mM HEPES buffer, pH 8.2. The N-terminus of BCA was acetylated posttranslationally. The final product contained ˜90% of BCA-Ac18 and 10% of BCA-Ac17, as determined by peak areas in an electropherogram from separation by capillary electrophoresis. The net charge of BCA in Tris-Gly buffer was about −3, and the net charge of BCA-Ac18 was about −19. It is believed that the difference in charge between BCA and BCA-Ac18 was less than 18 full units of charge due to charge regulation-adjustment of protonation states of other ionizable groups on the protein to counteract the increasing electrostatic potential on its surface.
For any charge ladder of BCA, as the number of modifications (n) increases, the total charge on the protein becomes more negative, and the surface of the protein becomes more hydrophobic due to conversion of NH3^+ groups to NHCOR groups. Native BCA has a charge of ˜−2.9 at pH 8. The charge on the early rungs of the ladder increased linearly with the number of acylations; each rung adds an additional charge of ˜−0.9. Therefore, for example, BCA-Ac8 has a charge of ˜−10. The later rungs of the ladder may differ by <0.9 units of charge. Using the Linderstrom-Lang model of cooperativity in proton binding, the charge on BCA-Ac18 was calculated to be −19. The mobility of a given rung of BCA-Acn may have nearly the same mobility as the corresponding rung of BCA-Hexn. Thus, the charges of the BCA-Hexn may be indistinguishable from those of BCA-Acn for a given rung number. (Small deviations in mobility between later rungs of the two ladders may be due either to a change in charge or a change in drag between the two ladders. It can be assumed that any differences in the mobilities are due to additional drag from the hexanoyl groups relative to the acetyl groups.

[3] = Refolding after 1 week incubation at intermediate SDS concentrations (aggregation test)
Procedure: Aggregation was tested by renaturing the proteins from a denatured state at 10 mM SDS to 0.1 mM SDS, but through an incubation step at intermediate concentrations of SDS, instead of renaturing by rapid dilution from 10 mM SDS to 0.1 mM SDS directly (i.e., 10 mM SDS→2.5 mM SDS→0.1 mM SDS instead of 10 mM SDS→0.1 mM SDS). For incubation, concentrations of SDS were chosen in which aggregation was believed to occur on a similar or shorter time scale as refolding. The protein-SDS complex was diluted from 10 mM SDS to 2.5-0.7 mM SDS, the proteins were incubated for 1 week at those concentrations, and the samples further diluted to 0.1 mM SDS to initiate fast refolding.
The fluorescence signal from DNSA was normalized to that of refolded protein by rapid dilution from 10 to 0.1 mM SDS.

[4] = Refolding of SDS-denatured protein by dilution or removal of SDS, monitored by DNSA fluorescence
Procedure: Monitoring refolding of BCA and BCA-Ac18 was performed as follows. The proteins (10 micomolar) were denatured in 10 mM SDS for 24 h. […] Refolding was initiated by dilution of an aliquot of the denatured sample to a final concentration of protein of 200 nM, with varying concentrations of SDS in the buffer. Immediately prior to the measurement, an aliquot of renaturing protein was mixed with an equal aliquot of DNSA. The rate constants for renaturation were determined by fitting the data to FU=FUmax(1-e^−kt)+FUmin. The refolding experiments at 37° C. were performed similarly.
The kinetics of refolding were determined as follows. The rates of refolding of BCA and BCA-Ac18 from the fully denatured states (in 10 mM SDS) were measured by dilution of the solutions into buffers containing concentrations of SDS from 0.1 to 2 mM, using the fluorescence of DNSA as a marker for the appearance of the folded state. […] As in denaturation studies, an aliquot of solution of the protein and SDS was mixed with an equal aliquot of solution of DNSA with the same amount of SDS immediately prior to the measurement to eliminate the possibility of DNSA influencing refolding kinetics. The buffer also contained 100 micromolar ZnSO4 to ensure that the folded protein could incorporate a Zn(II) cofactor.
The raw data emphasize the decrease in the yield of folded protein with increasing concentration of SDS. […] The half-lives (t1/2) for renaturation were determined, where possible, by fitting the data to FU=FUmax(1-exp(−t/t1/2))+FUmin; the fits are shown (solid lines). The tables provide data for refolding in 0.1 and 0.4 mM SDS as well as for concentrations on the graphs for comparison. […] The error bars represent the difference between the average and the largest and smallest values measured from at least three replicate measurements.

[5] = Unfolding (denaturation) of protein in SDS in Tris-Gly buffer, monitored by DNSA fluorescence
Procedure: Monitoring unfolding of BCA and BCA-Ac18 was performed as follows. The proteins (200 nM) were incubated in different concentrations of SDS in Tris-Gly buffer. A 100 microliter aliquot of protein-SDS solution was mixed with 100 microliters of DNSA solution (30 micromolar) with the same concentration of SDS, and measured the intensity of fluorescence (Perkin-Elmer LS50B spectrometer, λex=280 nm, λem=460 nm) as a function of time. The denaturation of BCA was continuously monitored in concentrations of SDS above 4 mM. The rate constants were determined for denaturation by fitting the intensity vs. time data to FU=FUmaxe^−kt+FUmin. Unfolding experiments at 37° C. were performed similarly, with samples stored in a dry bath incubator (Fisher Scientific).
The kinetics of unfolding were determined as follows. The rates of denaturation of BCA and BCA-Ac18 were measured by incubating the protein (200 nM) in solutions of different concentrations of SDS. Immediately prior to the measurement, an aliquot of solution containing protein and SDS was mixed with a solution containing DNSA and the same concentration of SDS; this protocol minimized the possibility that DNSA might stabilize the native conformation of the protein, and influence the rate of its denaturation. When BCA was denatured in concentrations of SDS of 4 mM and higher, DNSA was added to the original, denaturing solution because the rate of denaturation was too fast to follow with manual mixing of aliquots of protein and DNSA. It was observed that DNSA, when present with the protein in the denaturing solution, reduced the rates of denaturation by factors of about 2-10.
FIG. 1 plots the fluorescence of DNSA, normalized to the signal at t=0, as a function of time of incubation of samples of BCA and BCA-Ac18 in various concentrations of SDS. The decrease in the intensity of fluorescence of DNSA, and thus in the amount of folded protein, followed first-order kinetics. Denaturation of proteins with surfactants probably proceeds through intermediates, but when using a marker that is specific to the folded active site of carbonic anhydrase, transitions beyond the initial unfolding of the three-dimensional structure of the protein were not detected.
The tables list the half-lives (t1/2) for denaturation of BCA and BCA-Ac18 at several concentrations of SDS. The denaturation of BCA at 4 mM occurred very rapidly, and data are not shown to avoid overlap with data at 3.5 mM. The error bars represent the difference between the average and the largest and smallest values measured from at least three replicate measurements.

[6] = Denaturation of BCA charge ladders in 3 mM SDS (dialysis cassette) followed by capillary electrophoresis, with transition-state model fit; settings: for b coefficient of fit ΔG‡=a+bn+cn^2: 3 mM SDS; for Chydro (hydrophobic contribution to ΔΔG‡): per acylation
Procedure: Denaturation experiments were performed as follows. A charge ladder of BCA (BCA-Acn or BCA-Hexn, 1 mL of 100 micromolar total protein in Tris-Gly buffer) was placed in a dialysis cassette (MW cutoff of 10 kDa). The dialysis cassette was placed in a 1 L bath of 3 mM SDS in Tris-Gly buffer at room temperature. The buffer was changed every 24 h. At regular intervals of time (approximately every half-hour), 100 microliters of the protein solution was removed from the dialysis cassette; ˜7 microliters of that aliquot was diluted 10-fold and the absorbance of the diluted sample at 280 nm (ε280,BcA=57,000 M^−1 cm^−1, the absorption cross section can be assumed to be is unchanged by acylation) was measured to determine the total protein concentration. The aliquot was diluted because the absorbance of the 100 micromolar solution was too high to be read accurately by the ultraviolet spectrometer. This diluted aliquot was discarded. The remainder of the solution was then run on CE. The protein solution, except for the portion diluted for ultraviolet measurement, was returned to the dialysis cassette; the aliquot was outside of the dialysis cassette for ˜5 min.
Capillary electrophoresis experiments were carried out in a Beckman (Fullerton, Calif.) PACE-MDQ system, using a capillary of inner diameter of 50 micrometers of total length of 110.2 cm, 100 cm to the detector. Tris-Gly in D2O was used as the running buffer, and the applied voltage was 30 kV. D2O was used in place of H2O for the electrophoresis buffer because the viscosity of D2O is higher than that of H2O and the higher viscosity minimizes diffusion. Samples were injected using pressure (20 psi) for 30 s. Each sample contained 0.65 mM dimethylformamide as an electrically neutral marker for electroosmotic flow.
The CMC of SDS in the Tris-Gly buffer used in this example was 4.3 mM. 3 mM SDS was chosen for these experiments because this concentration of SDS denatured BCA in an interval of time that was convenient for experimental work using CE. In addition, this concentration of SDS was close to the concentration often used in SDS-PAGE (0.1% or 3.5 mM). 1 mL of a solution of ˜100 micromolar of a charge ladder of BCA, dissolved in Tris-Gly buffer, was placed into a dialysis cassette (molecular weight cutoff of 10 kDa) and the cassette placed in 1 L of Tris-Gly buffer containing 3 mM SDS. The bath was kept at room temperature (˜22° C.) for the duration of the experiment.
At regular intervals of time (approximately every half hour), 100-microliter aliquots of the solutions containing the charge ladder of BCA were removed from the cassette in a bath of 3 mM SDS in Tris-Gly buffer, the total protein concentration in the aliquot was measured using absorbance at 280 nm, and a portion (˜10 nL) of the aliquot injected onto the CE. The unused portions of the aliquots were then returned to the cassette.
Residence time in the detection volume was determined as follows. […] If two proteins with the same absorptivity were present in a sample in equal concentrations, the protein of lower velocity would have a larger measured peak area than the protein of higher velocity. To correct for this experimental bias, the area of each peak was multiplied-by the velocity of the protein (Acorr=Ameasured×LD/tD), where LD is the length of the capillary from the end (where injection occurs) to the detector (100 cm in all of these experiments) and tD is the time it takes for the rung to reach the detector.
Initial differences in concentrations of each rung were as follows. The areas of each of the rungs in the charge ladder were not all equal before denaturation. To measure the fraction of each rung that has denatured at each time, the velocity-corrected area of each rung in the sample was divided by the velocity-corrected area of that rung in the charge ladder run in the absence of SDS.
A comparison of the rates of denaturation follows. […]

Compound: CCCCCCCCCCCCOS(=O)(=O)[O-].[Na+] [SDS, sodium dodecyl sulfate]
- critical micelle concentration (CMC) [1]: 4.3 mM

Compound: BCA-Ac8: rung of the acetyl charge ladder of BCA with 8 acetylated lysines (regioisomers)
- charge of rung from number of acylations ([2]; each rung adds ~−0.9): ~−10

Compound: BCA-Ac18: charge-modified derivative of BCA having all 18 lysine groups acetylated
- yield of refolded protein after incubation, relative to BCA ([3]; 1 week incubation at intermediate SDS, then 0.1 mM SDS): higher than the yields of BCA
- t1/2 for refolding ([3]; denatured in 10 mM SDS, incubated 1 week at intermediate SDS, diluted into 0.1 mM SDS): 0.292 ± 0.0233 h
- concentration of SDS at which no refolded protein was observed ([4]; dilution from 10 mM SDS): ≥ 1600 µM
- rate of refolding relative to BCA ([4]; solutions with the same concentration of SDS): faster than refolding of BCA
- range of SDS concentrations in which protein neither refolds nor unfolds at an observable rate (window) ([4]; time scales of a month): 1.6 to 2 mM
- refolding rate (given as time) after denaturation with SDS ([4]; upon complete removal of the SDS): 21 ± 2 min
- net charge ([2]; Tris-Gly buffer): about −19
- t1/2 for denaturation ([5]; 4 mM SDS, Tris-Gly buffer): 30 h
- difference in denaturation time, BCA-Ac18 vs BCA (factor) ([5]; 4 mM and 10 mM SDS): ~10^4
- t1/2 for denaturation ([5]; 10 mM SDS, Tris-Gly buffer): 2.67 h
- difference in kinetics of denaturation of BCA and BCA-Ac18 (factor) ([5]; SDS at and above 2.5 mM): 10^1-10^4
- denaturation in low concentrations of SDS ([5]; SDS below 2 mM, long (~1 month) periods of time): no denaturation was observed
- concentration of SDS at which the protein denatures ([5]; Tris-Gly buffer, CMC 4.3 mM): ≥ 2500 µM
- change in rates of denaturation with SDS, BCA vs peracetylated BCA ([5]; change in charge of the protein by a factor of 5): −3 orders of magnitude
- difference in activation energy for denaturation, BCA-Ac18 vs BCA ([5]; from the factor of about 10^4 in rates): 5 kcal/mol

Compound: BCA-Acn: charge ladder of BCA prepared with acetic anhydride
- b coefficient of fit ΔG‡=a+bn+cn^2 [6]: 0.50±0.01 kcal/mol of protein
- effects of charge on denaturation with SDS relative to effects of hydrophobicity ([6]; model of charge ladder data): ~5 fold
- Chydro (hydrophobic contribution to ΔΔG‡) [6]: 0.085 kcal/mol

Compound: BCA-Hexn: charge ladder of BCA prepared with hexanoic anhydride
- b coefficient of fit ΔG‡=a+bn+cn^2 [6]: 0.33±0.01 kcal/mol of protein
- Chydro (hydrophobic contribution to ΔΔG‡) [6]: 0.26 kcal/mol
